Data reported in US20230250154A1 (CYTONICS, published 2023).

Key:
[1] = molecular target: Elastase; experiment: cell-based or functional assay
[2] = molecular target: T1, Cathepsin G (UniProt P08311 21-244); experiment: cell-based or functional assay
T1 sequence (looked up): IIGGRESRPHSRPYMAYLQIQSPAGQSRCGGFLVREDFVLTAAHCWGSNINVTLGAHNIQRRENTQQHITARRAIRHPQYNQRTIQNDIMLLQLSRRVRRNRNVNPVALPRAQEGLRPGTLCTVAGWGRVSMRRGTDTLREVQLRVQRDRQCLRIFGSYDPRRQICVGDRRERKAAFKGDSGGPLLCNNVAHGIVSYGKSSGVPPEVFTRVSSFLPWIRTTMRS

Protease Inhibition (% of WT) [1]: 250 % of WT | Protease Inhibition (% of WT) [2]: 350 % of WT
B1: Variant A2M, bait region SEQ ID NO 143 (other)
chain: SVSGKPQYMVLVPSLLHTETTEKGCVLLSYLNETVTVSASLESVRGNRSLFTDLEAENDVLHCVAFAVPKSSSNEEVMFLTVQVKGPTQEFKKRTTVMVKNEDSLVFVQTDKSIYKPGQTVKFRVVSMDENFHPLNELIPLVYIQDPKGNRIAQWQSFQLEGGLKQFSFPLSSEPFQGSYKVVVQKKSGGRTEHPFTVEEFVLPKFEVQVTVPKIITILEEEMNVSVCGLYTYGKPVPGHVTVSICRKYSDASDCHGEDSQAFCEKFSGQLNSHGCFYQQVKTKVFQLKRKEYEMKLHTEAQIQEEGTVVELTGRQSSEITRTITKLSFVKVDSHFRQGIPFFGQVRLVDGKGVPIPNKVIFIRGNEANYYSNATTDEHGLVQFSINTTNVMGTSLTVRVNYKDRSPCYGYQWVSEEHEEAHHTAYLVFSPSKSFVHLEPMSHELPCGHTQTVQAHYILNGGTLLGLKKLSFYYLIMAKGGIVRTGTHGLLVKQEDMKGHFSISIPVKSDIAPVARLLIYAVLPTGDVIGDSAKYDVENCLANKVDLSFSPSQSLPASHAHLRVTAAPQSVCALRAVDQSVLLMKPDAELSASSVYNLLPEKDLTGFPGPLNDQDDEDCINRHNVYINGITYTPVSSTNEKDMYSFLEDMGLKAFTNSKIRKPKMCPQLEQYEMHGPIPENFFGVSEDLVVQIEGEGEGEGEAIPMSIPTEPHTKLRKYFPETWIWDLVVVNSAGVAEVGVTVPDTITEWKAGAFCLSEDAGLGISSTASLRAFQPFFVELTMPYSVIRGEAFTLKATVLNYLPKCIRVSVQLEASPAFLAVPVEKEQAPHCICANGRQTVSWAVTPKSLGNVNFTVSAEALESQELCGTEVPSVPEHGRKDTVIKPLLVEPEGLEKETTFNSLLCPSGGEVSEELSLKLPPNVVEESARASVSVLGDILGSAMQNTQNLLQMPYGCGEQNMVLFAPNIYVLDYLNETQQLTPEIKSKAIGYLNTGYQRQLNYKHYDGSYSTFGERYGRNQGNTWLTAFVLKTFAQARAYIFIDEAHITQALIWLSQRQKDNGCFRSSGSLLNNAIKGGVEDEVTLSAYITIALLEIPLTVTHPVVRNALFCLESAWKTAQEGDHGSHVYTKALLAYAFALAGNQDKRKEVLKSLNEEAVKKDNSVHWERPQKPKAPVGHFYEPQAPSAEVEMTSYVLLAYLTAQPAPTSEDLTSATNIVKWITKQQNAQGGFSSTQDTVVALHALSKYGAATFTRTGKAAQVTIQSSGTFSSKFQVDNNNRLLLQQVSLPELPGEYSMKVTGEGCVYLQTSLKYNILPEKEEFPFALGVQTLPQTCDEPKAHTSFQISLSVSYTGSRSASNMAIVDVKMVSGFIPLKPTVKMLERSNHVSRTEVSSNHVLIYLDKVSNQTLSLFFTVLQDVPVRDLKPAIVKVYDYYETDEFAIAEYNAPCSKDLGNADYKDDDDKGASHHHHHH
